Relative insulin receptor binding affinity (%) (% of the affinity of human insulin) data for 26 substances are collected here from patent US20110092419A1.

The test has as its target purified recombinant human insulin receptor (either with or without exon 11) (human) (UniProt P06213). Put plainly: SPA competition with A14Tyr[125I]-human insulin on purified recombinant human insulin receptor.
Turning to “A8H, A14E, B16H, B25H, desB30 human insulin (from UniProt P01308 90-110; P01308 25-53) (ligand)”, the Relative insulin receptor binding affinity (%) (% of the affinity of human insulin) amounted to 24. For “A14E, A22K, B16H, B25H, B29R, desB30 human insulin (from UniProt P01308 90-110; P01308 25-53) (ligand)”, the Relative insulin receptor binding affinity (%) (% of the affinity of human insulin) is 7.61.

On to “A14E, A15E, B25H, desB30 human insulin (from UniProt P01308 90-110; P01308 25-53) (ligand)”, for which the Relative insulin receptor binding affinity (%) (% of the affinity of human insulin) was 23. On to “A14K, B25H, B29R human insulin (from UniProt P01308 90-110; P01308 25-54) (ligand)”, for which the Relative insulin receptor binding affinity (%) (% of the affinity of human insulin) was 11. Regarding “A14H, B16H, B25H, desB27, desB28, desB29, desB30 Human insulin (from UniProt P01308 90-110; P01308 25-50) (ligand)”, the Relative insulin receptor binding affinity (%) (% of the affinity of human insulin) was 2. The result for “A14E, B16E, B22K, B25H, B29R, desB30 human insulin (from UniProt P01308 90-110; P01308 25-53) (ligand)” reads 0.59; that for “A14E, B22K, B25H, B26G, B27G, B28G, B29R, desB30 human insulin (from UniProt P01308 90-110; P01308 25-53) (ligand)”, 60.7; that for “A14E, A21G, B25H, desB30 human insulin (from UniProt P01308 90-110; P01308 25-53) (ligand)”, 13.1. “A14E, A22K, B25H, B27E, B29R, desB30 human insulin (from UniProt P01308 90-110; P01308 25-53) (ligand)”: the Relative insulin receptor binding affinity (%) (% of the affinity of human insulin) stood at 24.6. Consider “A14E, B27K, desB28, desB29, desB30 human insulin (from UniProt P01308 90-110; P01308 25-51) (ligand)”, for which the Relative insulin receptor binding affinity (%) (% of the affinity of human insulin) was 79. In the case of “A8H, A14H, B16H, B25H, desB30 human insulin (from UniProt P01308 90-110; P01308 25-53) (ligand)”, the Relative insulin receptor binding affinity (%) (% of the affinity of human insulin) was determined as 27.

As to “A14E, B25H, B26G, B27G, B28K, desB30 human insulin (from UniProt P01308 90-110; P01308 25-53) (ligand)”, the Relative insulin receptor binding affinity (%) (% of the affinity of human insulin) was 69.5. Take “A8H, A14E, B10E, B25H, B26G, B27G,B28G, desB30 human insulin (from UniProt P01308 90-110; P01308 25-53) (ligand)”: the Relative insulin receptor binding affinity (%) (% of the affinity of human insulin) was found to be 136.

Regarding “A14E, B16H, B22K, B25H, B29R, desB30 human insulin (from UniProt P01308 90-110; P01308 25-53) (ligand)”, the Relative insulin receptor binding affinity (%) (% of the affinity of human insulin) is 4.61. Regarding “A14P, B25H, desB30 human insulin (from UniProt P01308 90-110; P01308 25-53) (ligand)”, the Relative insulin receptor binding affinity (%) (% of the affinity of human insulin) was 14.

For “A14E, A22K, B16E, B25H, B29R, desB30 human insulin (from UniProt P01308 90-110; P01308 25-53) (ligand)”, the Relative insulin receptor binding affinity (%) (% of the affinity of human insulin) is 0.9. The figure for “A14E, B25H, B26E, B27E, desB30 human insulin (from UniProt P01308 90-110; P01308 25-53) (ligand)” is 16.5; for “A14E, B25H, B27G, B28G, desB30 human insulin (from UniProt P01308 90-110; P01308 25-53) (ligand)” it is 16.5. Consider “A8H, A14E, B22K, B25H, B29R, desB30 human insulin (from UniProt P01308 90-110; P01308 25-53) (ligand)”, for which the Relative insulin receptor binding affinity (%) (% of the affinity of human insulin) came out at 81.1. As to “A14E, A22K, B25H, B26G, B27G, B28G, B29R, desB30 human insulin (from UniProt P01308 90-110; P01308 25-53) (ligand)”, the Relative insulin receptor binding affinity (%) (% of the affinity of human insulin) turned out to be 59.2.

Turning to “A14E, B16H, B25H, desB27, desB28, desB29, desB30 human insulin (from UniProt P01308 90-110; P01308 25-50) (ligand)”, the Relative insulin receptor binding affinity (%) (% of the affinity of human insulin) came to 1.9.

Take “A14E, B25H, B29R, desB30 human insulin (from UniProt P01308 90-110; P01308 25-53) (ligand)”: the Relative insulin receptor binding affinity (%) (% of the affinity of human insulin) came out at 26.1. The result for “A14E, B25H, B28G, desB30 human insulin (from UniProt P01308 90-110; P01308 25-53) (ligand)” reads 18.4. As to “A8H, A14E, A22K, B25H, B29R, desB30 human insulin (from UniProt P01308 90-110; P01308 25-53) (ligand)”, the Relative insulin receptor binding affinity (%) (% of the affinity of human insulin) came out at 67.1.

For the substance “A14E, B25H, B26G, B27E, B28G, desB30 human insulin (from UniProt P01308 90-110; P01308 25-53) (ligand)”, the Relative insulin receptor binding affinity (%) (% of the affinity of human insulin) was 22.7. The result for “A14E, B10E, B25H, B26G, B27G, B28G, desB30 human insulin (from UniProt P01308 90-110; P01308 25-53) (ligand)” reads 144.
